Literature values as cited in paper PMC3090270.

Target: PKA RII alpha D/D (UniProt P12367)
Sequence (P12367 2-45): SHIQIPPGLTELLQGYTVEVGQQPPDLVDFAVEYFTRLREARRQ

Chain of D-AKAP2 AKB (O43572 623-649): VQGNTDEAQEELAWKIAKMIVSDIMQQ

Kd: 2 nM
Substance: D-AKAP2 AKB (from UniProt O43572)
